Non-standard residues stand in square brackets, D forms with d. Residues, ends and D or L forms follow the SMILES beside them. *: point of attachment. DOTA = O=C(O)CN1CCN(CC(=O)O)CCN(CC(=O)*)CCN(CC(=O)O)CC1; Nle = CCCC[C@H](N)C(=O)O; X1 = NCCNCC(CNCCN)C(=O)*; AEEA = NCCOCCOCC(=O)O; βAla = NCCC(=O)O; For = O=C*
Key:
[1] = design: species or system Swiss albino mice; details: mouse, in vivo, 5 min
Procedure: Whole blood was collected 5 min postinjection (pi), blood cells were removed and major proteins were precipitated and then the supernatant was analyzed by RP-HPLC coupled to a gamma detector.
Alternatively, the dual NEP and ACE inhibitor racecadotril (race; 2.5 mg) was ip injected 45-60 min prior to radioligand injection and the same procedure was followed as described above.
To test the in vivo stability, ^111In-DOTA-MG11 was injected in the tail vein of Swiss albino mice and 5 min afterwards blood was collected, blood cells were removed and major proteins were precipitated and then the supernatant was analyzed by RP-HPLC coupled to a gamma detector. As shown in the radiochromatogram of FIG. 3A, the major part of ^111In-DOTA-MG11 was consumed during this period (<5% intact peptide still detected), in agreement with previous reports. Further, ^111In-DOTA-MG11 was co-injected together with PA or injected 1 h after ip injection of race (2.5 mg) in more mice and the same protocol was followed as above. Amazingly, the percentage of ^111In-DOTA-MG11 found intact in the blood of the PA-treated mice was raised from <5% to 75% and in the race-pretreated mice to 73%.
For ex vivo blood analysis, [^99mTc]Demotensin 6 was injected in the tail vein of Swiss albino mice and blood collected 5 min thereafter was analyzed as previously described. The effect of PA on stability was studied by co-injection of PA along with [^99mTc]Demotensin 6. Furthermore, a PA dose study was performed with the PA injected dose ranging from 300 μg down to 0.03 μg and results are summarized in FIG. 4A.
Additional groups of radiopeptides with relevance for nuclear medicine applications have been studied for their in vivo stability. Radiopeptides were injected in the tail vein of healthy mice, either alone, or with a NEP inhibitor (PA—300 μg), or with a NEP (PA—300 μg) and an ACE (Lis—300 μg) inhibitor mixture; alternatively, another NEP inhibitor prodrug (race—2.5 mg) was ip injected in the animals ˜45 min prior to radioligand injection. Blood was collected 5 min afterwards, and analyzed by RP-HPLC after suitable preparation, as previously described.

[2] = mouse; cited from earlier work
[3] = system: human prostate adenocarcinoma PC-3 xenografts (GRPR+); design: species or system SCID mice; details: mouse, in vivo; for uptake in PC-3 tumor: SCID, 4 h
Procedure: FIG. 6C: Biodistribution of [^99mTc]SAR-NC1 in SCID mice bearing human prostate adenocarcinoma PC-3 xenografts (GRPR^+) at 4 h pi.
In FIG. 6B and FIG. 7B, the biodistribution of [^99mTc]SAR-NC1 and [^99mTc]SAR-NC6 in SCID mice bearing human prostate adenocarcinoma PC-3 xenografts (GRPR^+) at 4 h respectively, after injection of the radioligand alone or with co-injection of PA (300 μg) are shown.
It is interesting to note that with co-injection of the blocker and PA tumor values were minimal (0.69±0.03% ID/g) showing that PA provoked a GRPR-mediated increase in tumor uptake.
The effect of PA-induced stabilization of [^99mTc]Demobesin 1 on tumor uptake is illustrated in FIG. 10B, showing the biodistribution at 4 h pi after injection of [^99mTc]Demobesin 1 in SCID mice bearing human PC-3 xenografts (GRPR^+) (control), or with PA (300 μg).

WiDr tumors (hNTS1+) = test: Biodistribution / tumor uptake in SCID mice bearing WiDr tumors (hNTS1+); details: 4 h pi
Procedure: FIG. 4H: Biodistribution of [^99mTc]Demotensin 6 in SCID mice bearing WiDr tumors (hNTS1^+) at 4 h pi. Bars represent average uptake as mean % injected dose per gram (% ID/g) of at least 4 animals with standard deviation (control at 4 h 2nd bars); three additional groups of animals received either excess NT(1-13) and PA (100 μg blocker and 300 μg PA—first bars), or PA (300 μg PA—3rd bars) or PA and Lis (300 μg PA+250 μg Lis—4th bars). Bl=blood, Li=liver, He=heart, Ki=kidneys, St=stomach, In=intestines, Sp=spleen, Mu=muscle, Lu=lungs, Pa=pancreas, Fe=femur and Tu=WiDr tumor.
FIG. 5H: Biodistribution of [^99mTc]Demotensin 1 in SCID mice bearing WiDr tumors (hNTS1+) at 4 h pi. Bars represent average uptake as mean % injected dose per gram (% ID/g) of at least 4 animals with standard deviation (control at 4 h 2nd bars); three additional groups of animals received either excess NT and PA (100 μg and 300 μg PA, respectively—first bars), or PA (300 μg PA—3rd bars) or PA and Lis (300 μg PA+300 μg Lis—4th bars). Bl=blood, Li=liver, He=heart, Ki=kidneys, St=stomach, In=intestines, Sp=spleen, Mu=muscle, Lu=lungs, Pa=pancreas, Fe=femur and Tu=WiDr tumor.
In FIG. 4B the effects of such regimens on SCID mice bearing the human colon adenocarcinoma WiDr tumor (a hNTS1R^+ tumor) on enhancing in vivo tumor targeting are presented.
In FIG. 5B the effects of above regimens on SCID mice bearing WiDr tumors (hNTS1R^+) on enhancing in vivo tumor targeting are shown.

SMILES | percentage of parent peptide remaining intact [1] | uptake in PC-3 tumor [3] | further results
CCCC[C@H](NC=O)C(=O)N[C@@H](CC(C)C)C(=O)N[C@@H](Cc1ccccc1)C(=O)N[C@@H](CCCC)C(=O)N[C@@H](Cc1ccc(O)cc1)C(=O)N[C@@H](CCCCNC(=O)CN1CCN(CC(=O)O)CCN(CC(=O)O)CCN(CC(=O)O)CC1)C(=O)O [[111In] CTP-1, For-Nle-Leu-Phe-Nle-Tyr-Lys(DOTA)-OH, metal not drawn] (For-[Nle]LF[Nle]YK(DOTA)-OH) | 2% |  | 
CCCC[C@H](NC(=O)[C@H](CO)NC(=O)[C@H](Cc1ccc(O)cc1)NC(=O)[C@H](CO)NC(=O)CN1CCN(CC(=O)O)CCN(CC(=O)O)CCN(CC(=O)O)CC1)C(=O)N[C@@H](CCC(=O)O)C(=O)N[C@@H](Cc1c[nH]cn1)C(=O)N[C@@H](Cc1ccccc1)C(=O)N[C@@H](CCCNC(=N)N)C(=O)N[C@@H](Cc1c[nH]c2ccccc12)C(=O)NCC(=O)N[C@@H](CCCCN)C(=O)N1CCC[C@H]1C(=O)N[C@H](C(N)=O)C(C)C [[111In]MSH-1, metal not drawn] | 52% |  | 
CCCC[C@H](NC(=O)[C@H](CO)NC(=O)[C@H](Cc1ccc(O)cc1)NC(=O)[C@H](CO)NC(=O)CN1CCN(CC(=O)O)CCN(CC(=O)O)CCN(CC(=O)O)CC1)C(=O)N[C@@H](CCC(=O)O)C(=O)N[C@@H](Cc1cnc[nH]1)C(=O)N[C@H](Cc1ccccc1)C(=O)N[C@@H](CCCN=C(N)N)C(=O)N[C@@H](Cc1c[nH]c2ccccc12)C(=O)NCC(=O)N[C@@H](CCCCN)C(=O)N1CCC[C@H]1C(=O)N[C@H](C(N)=O)C(C)C [[111In]MSH-2, (DOTA)Ser-Tyr-Ser-Nle-Glu-His-DPhe-Arg-Trp-Gly-Lys-Pro-Val-NH2, metal not drawn] | 77% |  | 
CSCC[C@H](NC(=O)[C@H](CC(C)C)NC(=O)CNC(=O)[C@H](Cc1ccccc1)NC(=O)[C@H](Cc1ccccc1)NC(=O)[C@H](CCC(N)=O)NC(=O)[C@H](CCC(N)=O)NC(=O)[C@@H]1CCCN1C(=O)[C@H](CCCCN)NC(=O)[C@@H]1CCCN1C(=O)[C@H](CCCNC(=N)N)NC(=O)CN1CCN(CC(=O)O)CCN(CC(=O)O)CCN(CC(=O)O)CC1)C(N)=O [[111In]SP-1, metal not drawn] | 7% |  | 
CC(C)C[C@H](NC(=O)CNC(=O)[C@H](Cc1ccccc1)NC(=O)[C@H](Cc1ccccc1)NC(=O)[C@H](CCC(N)=O)NC(=O)[C@H](CCC(N)=O)NC(=O)[C@@H]1CCCN1C(=O)[C@H](CCCCN)NC(=O)[C@@H]1CCCN1C(=O)[C@H](CCCNC(=N)N)NC(=O)CN1CCN(CC(=O)O)CCN(CC(=O)O)CCN(CC(=O)O)CC1)C(=O)N[C@@H](CCS(C)(=O)=O)C(N)=O [[111In]SP-2, metal not drawn] | 24% |  | 
CC(C)C[C@H](NC(=O)CN(C)C(=O)[C@H](Cc1ccccc1)NC(=O)[C@H](Cc1ccccc1)NC(=O)[C@H](CCC(N)=O)NC(=O)[C@H](CCC(N)=O)NC(=O)[C@@H]1CCCN1C(=O)[C@H](CCCCN)NC(=O)[C@@H]1CCCN1C(=O)[C@H](CCCNC(=N)N)NC(=O)CN1CCN(CC(=O)O)CCN(CC(=O)O)CCN(CC(=O)O)CC1)C(=O)N[C@@H](CCS(C)(=O)=O)C(N)=O [[111In]SP-3, metal not drawn] | 51% |  | 
CCNC(=O)[C@H](CC(C)C)NC(=O)[C@H](Cc1c[nH]cn1)NC(=O)CNC(=O)[C@@H](NC(=O)[C@H](C)NC(=O)[C@H](Cc1c[nH]c2ccccc12)NC(=O)[C@H](CCC(N)=O)NC(=O)[C@@H](Cc1ccccc1)NC(=O)COCC(=O)Nc1ccc(CC(CNCCN)CNCCN)cc1)C(C)C [[^99mTc]Demobesin 1, metal not drawn] |  | 12.73±0.93 % ID/g | in vitro stability in plasma [2]: high in vitro stability
CCCC[C@H](NC(=O)[C@H](CC(C)C)NC(=O)[C@H](Cc1c[nH]cn1)NC(=O)CNC(=O)[C@@H](NC(=O)[C@H](C)NC(=O)[C@H](Cc1c[nH]c2ccccc12)NC(=O)[C@H](CCC(N)=O)NC(=O)[C@H](CC(N)=O)NC(=O)CNC(=O)[C@H](Cc1ccc(O)cc1)NC(=O)[C@H](CCCN=C(N)N)NC(=O)[C@H](CCC(N)=O)NC(=O)[C@@H]1CCCN1C(=O)C(CNCCN)CNCCN)C(C)C)C(N)=O [[^99mTc]Demobesin 4, metal not drawn] | 26% | 11.26±1.81 % ID/g | in vitro stability in plasma [2]: very high
CC[C@H](C)[C@H](NC(=O)[C@H](Cc1ccc(O)cc1)NC(=O)[C@@H]1CCCN1C(=O)[C@H](CCCN=C(N)N)NC(=O)[C@H](CCCN=C(N)N)NC(=O)CNC(=O)C(CNCCN)CNCCN)C(=O)N[C@@H](CC(C)C)C(=O)O [[^99mTc]Demotensin 1, ^99mTc-N4-Gly-Arg-Arg-Pro-Tyr-Ile-Leu-OH, metal not drawn] (X1-GRRPYIL-OH) |  |  | uptake in WiDr tumor (WiDr tumors (hNTS1+); PA 300 μg): 4.58±0.47 % ID/g; uptake in WiDr tumor (WiDr tumors (hNTS1+); PA 300 μg + Lis (250 μg for Demotensin 6, 300 μg for Demotensin 1)): 7.71±1.19 % ID/g; uptake in WiDr tumor, blockade (WiDr tumors (hNTS1+); excess NT 100 μg blocker + 300 μg PA): 0.23±0.09 % ID/g; uptake in WiDr tumor (WiDr tumors (hNTS1+); non-treated controls): 1.20±0.21 % ID/g
CSCC[C@H](NC(=O)[C@H](CC(C)C)NC(=O)[C@H](Cc1c[nH]cn1)NC(=O)CNC(=O)[C@@H](NC(=O)[C@H](C)NC(=O)[C@H](Cc1c[nH]c2ccccc12)NC(=O)[C@H](Cc1c[nH]cn1)NC(=O)[C@H](CC(N)=O)NC(=O)CNC(=O)C(CNCCN)CNCCN)C(C)C)C(N)=O [[^99mTc]SAR-NC1, metal not drawn] | 30% | 6.51±1.91 % ID/g | 
CC(C)C[C@H](NC(=O)C[C@H](O)[C@H](CC(C)C)NC(=O)[C@H](Cc1c[nH]cn1)NC(=O)CNC(=O)[C@@H](NC(=O)[C@H](C)NC(=O)[C@H](Cc1c[nH]c2ccccc12)NC(=O)[C@H](CCC(N)=O)NC(=O)[C@@H](Cc1ccccc1)NC(=O)CCNC(=O)CCNC(=O)CN1CCN(CC(=O)O)CCN(CC(=O)O)CCN(CC(=O)O)CC1)C(C)C)C(N)=O [[^111In]JMV4168, [^111In]DOTA-βAla-βAla-DPhe-Gln-Trp-Ala-Val-Gly-His-Sta-Leu-NH2, metal not drawn] |  | 10.22±2.40 % ID/g | pancreas uptake [3]: remained very low
CCCC[C@H](NC(=O)[C@H](Cc1ccccc1)NC(=O)[C@H](Cc1c[nH]cn1)NC(=O)CCNC(=O)[C@@H](NC(=O)[C@H](C)NC(=O)[C@H](Cc1c[nH]c2ccccc12)NC(=O)[C@H](CCC(N)=O)NC(=O)[C@@H](Cc1ccc(O)cc1)NC(=O)COCCOCCNC(=O)CN1CCN(CC(=O)O)CCN(CC(=O)O)CCN(CC(=O)O)CC1)C(C)C)C(N)=O [[^111In]PanSarbesin 1, ^111In-DOTA-PEG2-DTyr-Gln-Trp-Ala-Val-βAla-His-Phe-Nle-NH2, metal not drawn] ({DOTA-AEEA}-[dY]QWAV[βAla]HF[Nle]-NH2) | 13% | 3.75±0.73 % ID/g | 

From patent publication US11612667B2, “Enhanced in vivo targeting of radiolabelled peptides with the means of enzyme inhibitors” (Advanced Accelerator Applications USA, Inc., priority 2011, dated 2023)
